According to publication PMC3293397 (Biochemistry, 2012):

Molecular target: the molecule itself
Assay: crystal structure

B1: S. elongatus KaiC E318A mutant protein (enzyme, Synechococcus elongatus PCC 7942, UniProt Q79PF4 1-519, looked up)
chain: MTSAEMTSPNNNSEHQAIAKMRTMIEGFDDISHGGLPIGRSTLVSGTSGTGKTLFSIQFLYNGIIEFDEPGVFVTFEETPQDIIKNARSFGWDLAKLVDEGKLFILDASPDPEGQEVVGGFDLSALIERINYAIQKYRARRVSIDSVTSVFQQYDASSVVRRELFRLVARLKQIGATTVMTTERIEEYGPIARYGVEEFVSDNVVILRNVLEGERRRRTLEILKLRGTSHMKGEYPFTITDHGINIFPLGAMRLTQRSSNVRVSSGVVRLDEMCGGGFFKDSIILATGATGTGKTLLVSRFVENACANKERAILFAYAESRAQLLRNAYSWGMDFEEMERQNLLKIVCAYPESAGLEDHLQIIKSEINDFKPARIAIDSLSALARGVSNNAFRQFVIGVTGYAKQEEITGLFTNTSDQFMGAHSITDSHISTITDTIILLQYVEIRGEMSRAINVFKMRGSWHDKAIREFMISDKGPDIKDSFRNFERIISGSPTRITVDEKSELSRIVRGVQEKGPES
modifications: phosphothreonine at T432 in five of the six subunits; no S431 phosphorylated
**Q.** Does B1 bind?
**A.** binds
